Measurements from patent US20210140973A1 (NITTO BOSEKI, published 2021).
Numbering of substitutions follows the chain as printed.

Columns and labels:
Experiment in all cases: Western blot: E. coli lysate with the GST-tagged peptide, SDS-PAGE, PVDF membrane, POD-labelled antibody diluted 1000-fold, ECL
[1] = target: T1, GST-tagged peptide H1 (full-length human IgG4 heavy chain constant region) (human, UniProt P01861 1-325 = IgG part)
T1 construct: Expressed in E. coli BL21; lysate, reduced and heat-denatured, on SDS-PAGE / Western blot; not shown: GST tag (glutathione S-transferase) linked to the N terminal, expressed from vector pGEX-6P-1
Protocol: (§1) Based on the designed amino acid sequences, base sequences suitable for expressing protein in E. coli were designed according to the protocol of GenScript Corporation, thereby preparing vector pGEX-6P-1 (GE Healthcare Bio-Sciences Corp.) to which the respective base sequences are inserted. The prepared expression plasmid was introduced to E. coli BL 21 strain, thereby obtaining a transformant. The transformant was cultured by an ordinary method and a protein expression was induced by IPTG. After the cells were collected by centrifugation, the cells were dissolved with an ordinary lysis solution, and subjected to ultrasonication. 6 μL of an SDS sample buffer solution was added to 6 μL of the obtained lysate. The respective prepared samples were subjected to a heat treatment at 95° C. for 5 minutes. 10 μL of the E. coli disrupted sample was added to each well of 5 to 20% electrophoresis gel (Atto Corportation) to which an SDS electrophoresis buffer solution was added. Similarly, a molecular weight standard (Bio-Rad Laboratories, Inc.) was added to each well and electrophoresed. After completing the electrophoresis, the electrophoresis gel was transcribed to a PVDF membrane (Millipore Corporation) with a transfer buffer solution. The PVDF membrane was immersed in a membrane blocking buffer solution, and then shaking was carried out at room temperature for 30 minutes. Amino groups of MaI4-08, MaI4-09, and MaI4-05-produced antibodies were subjected to a POD labeling treatment with a POD labeling kit (Dojindo Molecular Technologies, Inc.). The obtained labeled antibodies each were diluted 1000-fold by PBST. After the PVDF membrane was cleaned with PBST, the antibody solutions prepared each were added to the PVDF membrane, and then the reaction was performed at room temperature for 1 hour. After the PVDF membrane was cleaned by PBST, a signal was detected with ECL Prime Western Blotting Detection Reagents (GE Healthcare) with Image Quant Las4000.

[2] = target: T2, GST-tagged peptide H4 (positions 1 to 165 of the human IgG4 heavy chain constant region) (human, UniProt P01861 1-165 = IgG part)
T2 construct: E. coli lysate on Western blot; not shown: GST tag (glutathione S-transferase) linked to the N terminal, expressed from vector pGEX-6P-1
T2 sequence (P01861 1-165): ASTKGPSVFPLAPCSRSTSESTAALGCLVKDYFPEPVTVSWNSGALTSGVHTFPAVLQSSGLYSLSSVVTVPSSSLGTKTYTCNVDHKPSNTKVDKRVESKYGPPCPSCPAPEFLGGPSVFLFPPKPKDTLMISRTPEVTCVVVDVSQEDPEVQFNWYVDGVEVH
Protocol: as §1

[3] = target: T3, GST-tagged peptide H6 (positions 1 to 55 of the human IgG4 heavy chain constant region) (human, UniProt P01859 1-55 = IgG part)
T3 construct: E. coli lysate on Western blot; not shown: GST tag (glutathione S-transferase) linked to the N terminal, expressed from vector pGEX-6P-1
T3 sequence (P01859 1-55): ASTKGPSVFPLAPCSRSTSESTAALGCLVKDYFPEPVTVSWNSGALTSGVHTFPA
Protocol: as §1

[4] = target: T4, GST-tagged peptide H7 (positions 56 to 327 of the human IgG4 heavy chain constant region) (human, UniProt P01861 56-325 = IgG part)
T4 construct: E. coli lysate on Western blot; not shown: GST tag (glutathione S-transferase) linked to the N terminal, expressed from vector pGEX-6P-1
Protocol: as §1

[5] = target: T5, GST-tagged peptide H11 (positions 275 to 327 of the human IgG4 heavy chain constant region) (human, UniProt P01861 275-325 = IgG part)
T5 construct: E. coli lysate on Western blot; not shown: GST tag (glutathione S-transferase) linked to the N terminal, expressed from vector pGEX-6P-1
Protocol: as §1

[6] = target: T6, GST-tagged peptide H12 (positions 99 to 220 of the human IgG4 heavy chain constant region) (human, UniProt P01861 99-220 = IgG part)
T6 construct: E. coli lysate on Western blot; not shown: GST tag (glutathione S-transferase) linked to the N terminal, expressed from vector pGEX-6P-1
T6 sequence (P01861 99-220): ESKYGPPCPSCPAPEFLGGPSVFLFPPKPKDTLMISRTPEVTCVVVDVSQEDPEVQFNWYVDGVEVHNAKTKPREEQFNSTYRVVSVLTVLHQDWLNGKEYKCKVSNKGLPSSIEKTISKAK
Protocol: as §1

[7] = target: T7, GST-tagged peptide H31 (H10 with arginine for glutamine at position 235) (human, UniProt P01861 221-325 = IgG part)
T7 construct: not shown: GST tag (glutathione S-transferase) linked to the N terminal, expressed from vector pGEX-6P-1
T7 chain: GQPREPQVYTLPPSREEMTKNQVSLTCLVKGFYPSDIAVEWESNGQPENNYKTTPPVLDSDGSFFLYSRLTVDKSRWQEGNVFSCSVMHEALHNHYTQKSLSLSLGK
Protocol: as §1

[8] = target: T8, GST-tagged peptide H33 (H10 with glutamine for glutamic acid at position 299) (human, UniProt P01861 221-325 = IgG part)
T8 construct: not shown: GST tag (glutathione S-transferase) linked to the N terminal, expressed from vector pGEX-6P-1
T8 chain: T7 chain with R15Q, E79Q
Protocol: as §1

[9] = target: T9, GST-tagged peptide H35 (H10 with Q235R, R289K, E299Q and L325P) (human, UniProt P0DOX5 343-449 = IgG part)
T9 construct: not shown: N-terminal GST tag (from vector pGEX-6P-1) and any vector linker
T9 chain: T7 chain with R69K, E79Q, L105P
Protocol: as §1

[10] = target: T10, GST-tagged peptide H37 (H10 with R289K and L325P) (human, UniProt P01861 221-324 = IgG part)
T10 construct: not shown: N-terminal GST tag (from vector pGEX-6P-1) and any vector linker
T10 chain: T7 chain with R15Q, R69K, L105P
Protocol: as §1

B1: MaI4-08-produced antibody (antibody, IgG1, V domains shown)
VH: EVQLQQSGPELVKPGTSVKMSCKASGYIFTSYILHWVKQKPGQGLEWIAYINPYNDGTKYKEKFKGKGTLTSDKSSSTAYMELSSLTSEDSAVYYCARSGGGYGNYAWFAYWGPGTLVTVST
VL: DIQMTQSPSSLSASLGERVSLTCRASQDIGSSLNWLQQEPDGTIKRLIYATSSLDSGVPKRFSGSRSGSDYSLTISSLESEDFVDYYCLQYASYPPTFGAGTKLELK
notes: Purified on protein G from hybridoma culture supernatant; POD-labelled for the Western blots
binding result [1]: binds
binding result [2]: no binding
binding result [3]: no binding
binding result [4]: binds
binding result [5]: no binding
binding result [6]: no binding
binding result [7]: binds
binding result [8]: no binding
binding result [9]: no binding
binding result [10]: binds
